PMC5730846

Molecular target: recombinant Hsp90α (human) (UniProt P07900)

- inhibition of Hsp90α ATPase activity in vitro (PiPer Phosphate Assay) by 100 nM Tsc1-D: 72%
B1: Tsc1-D-His6 (domain or fragment)
chain: DGCSDSMVGHNEEASGHNGETKTPRPSSARGSSGSRGGGGSSSSSSELSTPEKPPHQRAGPFSSRWETTMGEASASIPTTVGSLPSSKSFLGMKARELFRNKSESQCDEDGMTSSLSESLKTELGKDLGVEAKIPLNLDGPHPSPPTPDSVGQLHIMDYNETHHEHS
